The test addresses human BCMA recombinant antigen (human) (UniProt Q02223). The test can be described thus: competition ELISA, coated human BCMA, antibody varied, then biotinylated human APRIL at 240 ng/mL, SA-HRP. On the technique in general: In an ELISA, binding on a coated surface is turned into a signal by an enzyme label.

This passage reports IC50 (read off the curve) results from patent US20250277045A1.

Chain of human BCMA recombinant antigen (human) (Q02223 1-53): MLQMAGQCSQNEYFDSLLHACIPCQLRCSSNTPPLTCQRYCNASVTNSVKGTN

For REGN5458 (bispecific antibody), the IC50 (read off the curve) amounted to 3 nM.
